The record followed here is the supplement of paper PMC9112550, “Optimization of the antimicrobial peptide Bac7 by deep mutational scanning” (BMC Biology, 2022).

In this data set the test system is Escherichia coli TOP10. Briefly: shrunken log2 fold change of peptide-encoding DNA abundance (4.5 h post-induction vs induction); higher = less antimicrobial activity (less host growth inhibition). As to conditions: time post-induction: 4.5 h; library: site-saturation at positions 5, 18, 19, 20.
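Note: peptides expressed intracellularly from a pBAD plasmid library in pooled LB shake-flask culture, induced with 0.3% L-arabinose, DNA abundance read by NGS, three biological replicates, DESeq2 with apeglm shrinkage.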

Turning to RRIRWRPPRLPRPRPRPKRRPRP, the “shrunken log2 fold change” value was 0.0884.

In the case of RRIRFRPPRLPRPRPRPSTSPRP, the “shrunken log2 fold change” value is -0.0297.

On to RRIRARPPRLPRPRPRPDYAPRP, for which the “shrunken log2 fold change” value is 2.44.

RRIRKRPPRLPRPRPRPALFPRP: the “shrunken log2 fold change” value was found to be 0.497.

Turning to RRIRSRPPRLPRPRPRPNYWPRP, the “shrunken log2 fold change” value is -0.143.

As to RRIRTRPPRLPRPRPRPKPIPRP, the “shrunken log2 fold change” value came out at 0.0226.

For the sequence RRIRFRPPRLPRPRPRPNQMPRP, the “shrunken log2 fold change” value was -0.167.

On to RRIRKRPPRLPRPRPRPLEPPRP, for which the “shrunken log2 fold change” value worked out at 0.238.

As to RRIRARPPRLPRPRPRPPTMPRP, the “shrunken log2 fold change” value is 0.407.

With RRIRTRPPRLPRPRPRPIAFPRP, the “shrunken log2 fold change” value was -0.0138.

In the case of RRIRIRPPRLPRPRPRPRYMPRP, the “shrunken log2 fold change” value is -0.114.

On to RRIRFRPPRLPRPRPRPTWSPRP, for which the “shrunken log2 fold change” value turned out to be 0.188.

In the case of RRIRARPPRLPRPRPRPGMPPRP, the “shrunken log2 fold change” value was 0.128.

With RRIRVRPPRLPRPRPRPPTFPRP, the “shrunken log2 fold change” value was 0.0282.

For RRIRWRPPRLPRPRPRPPGVPRP, the “shrunken log2 fold change” value stood at 0.525.

In the case of RRIRPRPPRLPRPRPRPLSHPRP, the “shrunken log2 fold change” value is -0.27.

As for RRIRMRPPRLPRPRPRPGHWPRP, the “shrunken log2 fold change” value was 0.263.

As for RRIRSRPPRLPRPRPRPQTEPRP, the “shrunken log2 fold change” value is -0.0463.

Turning to RRIRYRPPRLPRPRPRPHAWPRP, the “shrunken log2 fold change” value was -0.129.

For the sequence RRIRFRPPRLPRPRPRPRTGPRP, the “shrunken log2 fold change” value amounted to 0.0905.

Consider RRIRRRPPRLPRPRPRPTNSPRP, for which the “shrunken log2 fold change” value is 1.15.

Regarding RRIRMRPPRLPRPRPRPRKGPRP, the “shrunken log2 fold change” value worked out at 0.81.

Regarding RRIRWRPPRLPRPRPRPLLRPRP, the “shrunken log2 fold change” value turned out to be 0.325.

With RRIRWRPPRLPRPRPRPIFCPRP, the “shrunken log2 fold change” value was found to be 0.067.

On to RRIRPRPPRLPRPRPRPYSCPRP, for which the “shrunken log2 fold change” value is -0.183.

Take RRIRMRPPRLPRPRPRPRVFPRP: the “shrunken log2 fold change” value came to 0.947.

As for RRIRTRPPRLPRPRPRPDQVPRP, the “shrunken log2 fold change” value was -0.272.

In the case of RRIRRRPPRLPRPRPRPHLCPRP, the “shrunken log2 fold change” value is 0.189.

RRIRTRPPRLPRPRPRPMFKPRP: the “shrunken log2 fold change” value was -0.122.

For RRIRFRPPRLPRPRPRPEPRPRP, the “shrunken log2 fold change” value is 0.81.

Consider RRIRTRPPRLPRPRPRPQSVPRP, for which the “shrunken log2 fold change” value was -0.104.

In the case of RRIRPRPPRLPRPRPRPYIIPRP, the “shrunken log2 fold change” value was -0.455.

For RRIRKRPPRLPRPRPRPVWMPRP, the “shrunken log2 fold change” value was 0.136.

With RRIRDRPPRLPRPRPRPVTFPRP, the “shrunken log2 fold change” value is -0.0135.

RRIRERPPRLPRPRPRPFWMPRP: the “shrunken log2 fold change” value was -0.262.

For RRIRSRPPRLPRPRPRPSQDPRP, the “shrunken log2 fold change” value is -0.296.

As for RRIRHRPPRLPRPRPRPECSPRP, the “shrunken log2 fold change” value was -0.0101.

As to RRIRPRPPRLPRPRPRPCLEPRP, the “shrunken log2 fold change” value is -0.0989.

Take RRIRKRPPRLPRPRPRPPPWPRP: the “shrunken log2 fold change” value was determined as 1.03.

Turning to RRIRQRPPRLPRPRPRPGFCPRP, the “shrunken log2 fold change” value is 0.159.

Consider RRIRWRPPRLPRPRPRPWCGPRP, for which the “shrunken log2 fold change” value stood at 0.273.

For RRIRFRPPRLPRPRPRPSHGPRP, the “shrunken log2 fold change” value was -0.391.

Consider RRIRTRPPRLPRPRPRPLEVPRP, for which the “shrunken log2 fold change” value is -0.00296.

As for RRIRERPPRLPRPRPRPEEVPRP, the “shrunken log2 fold change” value was -0.00101.

With RRIRYRPPRLPRPRPRPRTRPRP, the “shrunken log2 fold change” value is -0.0272.

Consider RRIRPRPPRLPRPRPRPFEKPRP, for which the “shrunken log2 fold change” value came out at 0.0465.

With RRIRSRPPRLPRPRPRPQIFPRP, the “shrunken log2 fold change” value amounted to 0.0933.

On to RRIRGRPPRLPRPRPRPAPYPRP, for which the “shrunken log2 fold change” value worked out at 0.218.

On to RRIRGRPPRLPRPRPRPTAFPRP, for which the “shrunken log2 fold change” value was found to be 1.19.

Take RRIRRRPPRLPRPRPRPHLVPRP: the “shrunken log2 fold change” value turned out to be 0.127.

In the case of RRIRWRPPRLPRPRPRPGWQPRP, the “shrunken log2 fold change” value came out at 0.0857.

Turning to RRIRGRPPRLPRPRPRPHQEPRP, the “shrunken log2 fold change” value stood at 0.305.

As for RRIRYRPPRLPRPRPRPRPYPRP, the “shrunken log2 fold change” value was -0.259.

In the case of RRIRPRPPRLPRPRPRPLLEPRP, the “shrunken log2 fold change” value was 0.059.

Regarding RRIRMRPPRLPRPRPRPFCRPRP, the “shrunken log2 fold change” value was 0.315.

Regarding RRIRVRPPRLPRPRPRPLNKPRP, the “shrunken log2 fold change” value is -0.323.

As to RRIRPRPPRLPRPRPRPQISPRP, the “shrunken log2 fold change” value is -0.221.

In the case of RRIRERPPRLPRPRPRPWIMPRP, the “shrunken log2 fold change” value was -0.277.

RRIRMRPPRLPRPRPRPCQLPRP: the “shrunken log2 fold change” value was -0.00804.

Consider RRIRPRPPRLPRPRPRPTLLPRP, for which the “shrunken log2 fold change” value was -0.0649.

Consider RRIRQRPPRLPRPRPRPQFSPRP, for which the “shrunken log2 fold change” value was -0.525.

With RRIRMRPPRLPRPRPRPTGRPRP, the “shrunken log2 fold change” value is 1.24.

With RRIRRRPPRLPRPRPRPKHCPRP, the “shrunken log2 fold change” value came out at 0.294.

As to RRIRERPPRLPRPRPRPRHVPRP, the “shrunken log2 fold change” value amounted to 0.0784.

As for RRIRVRPPRLPRPRPRPGDKPRP, the “shrunken log2 fold change” value came to 0.00318.

For RRIRTRPPRLPRPRPRPAEAPRP, the “shrunken log2 fold change” value turned out to be 0.148.

RRIRQRPPRLPRPRPRPAWAPRP: the “shrunken log2 fold change” value is 0.263.

For the sequence RRIRSRPPRLPRPRPRPMDRPRP, the “shrunken log2 fold change” value is -0.155.

For the sequence RRIRVRPPRLPRPRPRPQEYPRP, the “shrunken log2 fold change” value amounted to 0.0203.

As for RRIRIRPPRLPRPRPRPKWIPRP, the “shrunken log2 fold change” value is -0.77.

For RRIRWRPPRLPRPRPRPTAAPRP, the “shrunken log2 fold change” value was 1.65.

As for RRIRARPPRLPRPRPRPWLVPRP, the “shrunken log2 fold change” value was determined as 0.0219.

For RRIRMRPPRLPRPRPRPNFQPRP, the “shrunken log2 fold change” value is -0.0246.

Regarding RRIRCRPPRLPRPRPRPYRMPRP, the “shrunken log2 fold change” value is -0.197.

Take RRIRWRPPRLPRPRPRPSIMPRP: the “shrunken log2 fold change” value is -0.0893.

As for RRIRMRPPRLPRPRPRPAEMPRP, the “shrunken log2 fold change” value was 0.0981.

For RRIRDRPPRLPRPRPRPEIIPRP, the “shrunken log2 fold change” value was found to be 0.0753.

With RRIRWRPPRLPRPRPRPWVAPRP, the “shrunken log2 fold change” value was found to be 0.191.

On to RRIRLRPPRLPRPRPRPVHHPRP, for which the “shrunken log2 fold change” value was -0.105.

Regarding RRIRKRPPRLPRPRPRPTLEPRP, the “shrunken log2 fold change” value is 0.132.

As for RRIRCRPPRLPRPRPRPVYVPRP, the “shrunken log2 fold change” value is -0.483.

Regarding RRIRTRPPRLPRPRPRPNAWPRP, the “shrunken log2 fold change” value was 0.0447.

Take RRIRVRPPRLPRPRPRPVMVPRP: the “shrunken log2 fold change” value was -0.166.

With RRIRVRPPRLPRPRPRPFSMPRP, the “shrunken log2 fold change” value was -0.0688.

For the sequence RRIRRRPPRLPRPRPRPTSCPRP, the “shrunken log2 fold change” value was -0.108.

RRIRQRPPRLPRPRPRPANVPRP: the “shrunken log2 fold change” value was -0.105.

Consider RRIRNRPPRLPRPRPRPQDVPRP, for which the “shrunken log2 fold change” value was -0.0757.

With RRIRTRPPRLPRPRPRPISLPRP, the “shrunken log2 fold change” value was -0.0795.

On to RRIRDRPPRLPRPRPRPIFNPRP, for which the “shrunken log2 fold change” value was -0.239.

For RRIRQRPPRLPRPRPRPIYIPRP, the “shrunken log2 fold change” value is -0.46.

For the sequence RRIRGRPPRLPRPRPRPGWQPRP, the “shrunken log2 fold change” value was determined as 0.0826.
